Laboratory results from patent US20150073033.

Experiments:
[1] = test system: purified recombinant His-tagged WT histone H3
[2] = target: purified recombinant GST-Bub3 (wild type) (UniProt O43684)
[3] = target: purified GST-β-catenin (unphosphorylated) (UniProt P35222)
Sequence of purified GST-β-catenin (unphosphorylated) (P35222 whole entry): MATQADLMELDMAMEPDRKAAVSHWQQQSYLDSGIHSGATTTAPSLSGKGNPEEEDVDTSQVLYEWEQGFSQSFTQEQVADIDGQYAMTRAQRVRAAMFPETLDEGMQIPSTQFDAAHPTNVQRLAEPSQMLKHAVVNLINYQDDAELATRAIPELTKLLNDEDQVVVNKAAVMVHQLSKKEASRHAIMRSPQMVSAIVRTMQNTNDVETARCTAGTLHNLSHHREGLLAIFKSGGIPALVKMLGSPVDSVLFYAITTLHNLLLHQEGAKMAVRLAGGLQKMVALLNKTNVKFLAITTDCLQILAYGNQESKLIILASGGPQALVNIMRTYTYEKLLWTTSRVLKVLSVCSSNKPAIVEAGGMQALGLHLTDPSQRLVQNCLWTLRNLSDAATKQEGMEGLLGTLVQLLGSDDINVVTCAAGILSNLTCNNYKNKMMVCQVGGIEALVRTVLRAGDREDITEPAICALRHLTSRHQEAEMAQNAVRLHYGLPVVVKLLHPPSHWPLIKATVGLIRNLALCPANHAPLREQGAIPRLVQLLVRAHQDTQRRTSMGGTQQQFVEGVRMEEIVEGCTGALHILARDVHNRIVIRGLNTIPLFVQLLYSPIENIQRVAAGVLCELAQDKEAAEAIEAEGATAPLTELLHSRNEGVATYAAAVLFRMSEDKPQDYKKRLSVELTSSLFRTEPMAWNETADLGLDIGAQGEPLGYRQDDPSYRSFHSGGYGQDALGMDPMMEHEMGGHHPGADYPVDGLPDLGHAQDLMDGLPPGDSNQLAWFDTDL

Sequence of purified recombinant GST-Bub3 (wild type) (O43684 whole entry): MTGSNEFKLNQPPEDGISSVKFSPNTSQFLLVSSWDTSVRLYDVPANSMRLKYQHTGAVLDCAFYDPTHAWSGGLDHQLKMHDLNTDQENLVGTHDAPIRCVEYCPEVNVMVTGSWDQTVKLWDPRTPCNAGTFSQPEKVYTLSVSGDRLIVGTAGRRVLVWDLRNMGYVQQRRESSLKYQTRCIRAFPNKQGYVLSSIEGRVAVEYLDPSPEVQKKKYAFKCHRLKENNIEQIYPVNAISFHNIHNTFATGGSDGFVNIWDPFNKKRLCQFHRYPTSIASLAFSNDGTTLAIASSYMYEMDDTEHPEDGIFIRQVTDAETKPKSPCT

Row | Substance | in vitro phosphorylation with PEP (anti-phospho-Thr and phospho-H3-T11 immunoblot) [1] | in vitro protein kinase assay with PEP (anti-phospho-Tyr immunoblot) [2] | in vitro protein kinase assay (Tyr and Y333 phosphorylation by immunoblot) [3]
1 | purified recombinant His-PKM2 (wild type) | WT PKM2, but not PKM2 K367M kinase-dead mutant (Yang et al., 2011) or PKM1, phosphorylated WT histone H3 but not H3-T11A | PKM2, but not PKM2 K367M or PKM1, phosphorylated Bub3 | –
2 | purified active c-Src | – | – | active c-Src was able to phosphorylate WT β-catenin
